Data on two substances can be found in US20030092613A1, “Alpha7 nicotinic receptor peptides as ligands for beta amyloid peptides” (priority 2000, published 2003).

The target in this assay is β-amyloid1-42 (UniProt P05067). Put plainly: cell-based or functional assay.

Consider (Ac)FYEC (peptide), for which the ACh rel % Inh @ 100 µM worked out at 54% and the Inh ACh rel IC50 was < 10 µM.
The like results for (Ac)YECC-amide (peptide) were, in that order, 62% and < 10 µM.
